Reference: the supplement of paper PMC9112550, “Optimization of the antimicrobial peptide Bac7 by deep mutational scanning” (BMC Biology, 2022)

System: Escherichia coli TOP10
Experiment: shrunken log2 fold change of peptide-encoding DNA abundance (4.5 h post-induction vs induction); higher = less antimicrobial activity (less host growth inhibition)
Details: time post-induction: 4.5 h; library: site-saturation at positions 5, 18, 19, 20
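Also: peptides expressed intracellularly from a pBAD plasmid library in pooled LB shake-flask culture, induced with 0.3% L-arabinose, DNA abundance read by NGS, three biological replicates, DESeq2 with apeglm shrinkage.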

Sequence | shrunken log2 fold change
RRIRFRPPRLPRPRPRPHSCPRP | -0.249
RRIRFRPPRLPRPRPRPHTKPRP | -0.0159
RRIRFRPPRLPRPRPRPHTMPRP | -0.459
RRIRFRPPRLPRPRPRPHVFPRP | -0.136
RRIRFRPPRLPRPRPRPIAFPRP | 0.0375
RRIRFRPPRLPRPRPRPIARPRP | 0.00909
RRIRFRPPRLPRPRPRPICHPRP | -0.351
RRIRFRPPRLPRPRPRPICKPRP | -0.0703
RRIRFRPPRLPRPRPRPICLPRP | -0.548
RRIRFRPPRLPRPRPRPIFKPRP | -0.153
RRIRFRPPRLPRPRPRPIGCPRP | -0.111
RRIRFRPPRLPRPRPRPIHRPRP | -0.0271
RRIRFRPPRLPRPRPRPILDPRP | -0.0134
RRIRFRPPRLPRPRPRPINKPRP | -0.582
RRIRFRPPRLPRPRPRPIQDPRP | -0.025
RRIRFRPPRLPRPRPRPIQMPRP | -0.0945
RRIRFRPPRLPRPRPRPIVHPRP | -0.581
RRIRFRPPRLPRPRPRPKATPRP | -0.061
RRIRFRPPRLPRPRPRPKCMPRP | -0.967
RRIRFRPPRLPRPRPRPKDCPRP | 0.104
RRIRFRPPRLPRPRPRPKDDPRP | -0.052
RRIRFRPPRLPRPRPRPKDFPRP | -0.158
RRIRFRPPRLPRPRPRPKDNPRP | -0.000409
RRIRFRPPRLPRPRPRPKESPRP | -0.0731
RRIRFRPPRLPRPRPRPKGMPRP | -0.243

Sequence | shrunken log2 fold change
RRIRFRPPRLPRPRPRPKKWPRP | 0.187
RRIRFRPPRLPRPRPRPKMMPRP | -0.147
RRIRFRPPRLPRPRPRPKMTPRP | -0.173
RRIRFRPPRLPRPRPRPKMVPRP | -0.0413
RRIRFRPPRLPRPRPRPKQGPRP | -0.00975
RRIRFRPPRLPRPRPRPKSEPRP | -0.213
RRIRFRPPRLPRPRPRPKTEPRP | 0.0656
RRIRFRPPRLPRPRPRPKVHPRP | 0.146
RRIRFRPPRLPRPRPRPKVKPRP | 0.0668
RRIRFRPPRLPRPRPRPKYDPRP | -0.606
RRIRFRPPRLPRPRPRPKYKPRP | -0.63
RRIRFRPPRLPRPRPRPKYYPRP | -0.386
RRIRFRPPRLPRPRPRPLALPRP | -0.0762
RRIRFRPPRLPRPRPRPLCSPRP | -0.566
RRIRFRPPRLPRPRPRPLDWPRP | -0.119
RRIRFRPPRLPRPRPRPLFEPRP | -0.0359
RRIRFRPPRLPRPRPRPLGCPRP | 0.121
RRIRFRPPRLPRPRPRPLGNPRP | -0.215
RRIRFRPPRLPRPRPRPLHAPRP | 0.0292
RRIRFRPPRLPRPRPRPLHCPRP | 0.0254
RRIRFRPPRLPRPRPRPLHIPRP | -0.7
RRIRFRPPRLPRPRPRPLINPRP | -0.421
RRIRFRPPRLPRPRPRPLKIPRP | -0.24
RRIRFRPPRLPRPRPRPLKQPRP | 0.053
RRIRFRPPRLPRPRPRPLKVPRP | -0.112

Sequence | shrunken log2 fold change
RRIRFRPPRLPRPRPRPLMGPRP | -0.18
RRIRFRPPRLPRPRPRPLNTPRP | -0.483
RRIRFRPPRLPRPRPRPLPLPRP | 0.0222
RRIRFRPPRLPRPRPRPLQAPRP | 0.285
RRIRFRPPRLPRPRPRPLREPRP | 0.618
RRIRFRPPRLPRPRPRPLSPPRP | -0.476
RRIRFRPPRLPRPRPRPLTEPRP | -0.331
RRIRFRPPRLPRPRPRPLWHPRP | -0.248
RRIRFRPPRLPRPRPRPMAFPRP | -0.126
RRIRFRPPRLPRPRPRPMALPRP | -0.706
RRIRFRPPRLPRPRPRPMCLPRP | -0.564
RRIRFRPPRLPRPRPRPMCRPRP | -0.218
RRIRFRPPRLPRPRPRPMDCPRP | 0.00893
RRIRFRPPRLPRPRPRPMDDPRP | -0.182
RRIRFRPPRLPRPRPRPMDEPRP | 0.0137
RRIRFRPPRLPRPRPRPMDRPRP | 0.0616
RRIRFRPPRLPRPRPRPMEDPRP | -0.015
RRIRFRPPRLPRPRPRPMESPRP | 0.0556
RRIRFRPPRLPRPRPRPMFHPRP | -0.473
RRIRFRPPRLPRPRPRPMFLPRP | -0.712
RRIRFRPPRLPRPRPRPMFVPRP | 0.109
RRIRFRPPRLPRPRPRPMGAPRP | -0.0556
RRIRFRPPRLPRPRPRPMGDPRP | -0.0467
RRIRFRPPRLPRPRPRPMIEPRP | 0.0675
RRIRFRPPRLPRPRPRPMIPPRP | 0.00508
